This note sets out measurements from article PMC5115829, “Digitor/dASCIZ Has Multiple Roles in Drosophila Development” (PLoS ONE, 2016).

In this experiment the target is T1, His-tagged COOH-terminal fragment of Digitor containing the six TQT motifs (amino acids 256 to 388) (Drosophila, UniProt Q9VZU1 256-388).
T1 construct: Digitor/dASCIZ (CG14962), Drosophila, residues 256-388, holds the six TQT motifs; full length is aa 1-388; Purification is not described; 10 ug amounts are stated; also called Digitor-His; His-Digitor; source: expressed in BL21 cells (pET28a)
T1 sequence (looked up): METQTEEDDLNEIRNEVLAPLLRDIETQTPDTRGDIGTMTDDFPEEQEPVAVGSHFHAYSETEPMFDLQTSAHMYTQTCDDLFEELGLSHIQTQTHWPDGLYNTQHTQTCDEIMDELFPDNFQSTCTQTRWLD
Kind of experiment: pull-down; MBP-Cut up or MBP alone bound to amylose resin, incubated with His-tagged Digitor in 1X PBS pH 7.4, 4 hr, 4°C; 5 washes; immunoblot with anti-His antibody. As to conditions: both partners purified. For orientation: In western blotting, separated proteins are transferred to a membrane and probed.

B1: full length Cut up MBP fusion protein (amino acids 1-89) (natural protein, Drosophila, UniProt Q24117 1-89, looked up)
chain: MSDRKAVIKNADMSEEMQQDAVDCATQALEKYNIEKDIAAYIKKEFDKKYNPTWHCIVGRNFGSYVTHETRHFIYFYLGQVAILLFKSG
notes: Cut up, the Dynein light chain (DYNLL1 homolog) of Drosophila, full-length cDNA encoding amino acids 1-89; Purification is not described; 10 ug amounts are stated; also called MBP-Cut-up; MBP-Cut up; source: expressed in BL21 cells (pMAL-C2X)
Turning to B1, the binding result is “binds”.
